Test results published in the supplement of paper PMC12042874.
± gives the uncertainty stated by the source.

assay: amyloid nucleation score (Sup35N fusion, yeast selection) (log enrichment); library NNK3; higher = more nucleation; inactive = no reads after selection
How it was run: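 The nucleation score equals the log enrichment of output over input reads from DiMSum, centred on the mode score of non-aggregating sequences. It was computed only for sequences with 100 or more input reads. The reads came from Illumina sequencing of plasmid inserts from psi-negative yeast expressing Sup35N fused to peptides of 20 random codons, induced with 100 μM copper sulfate for 24 hours and grown 7 days at 30°C without adenine and uracil.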

Row | Substance | amyloid nucleation score
1 | GLFCPVYS | inactive
2 | HYYVDNPD | inactive
3 | VSACIWRKLPVFVYSVSAGS | inactive
4 | YDMSDMNCRRIW | inactive
5 | RRPVYIIASNLDYMQTSCIT | inactive
6 | TMIFYYRYRLVCDGLFFCGT | 0.034 ± 0.48
7 | EVSWVSRNVWFNRTCFCVQV | 0.042 ± 0.64
8 | FRYPYNPVIREFCTCSSWFL | 1.73 ± 0.069
9 | GGTIFNGNWVSTLSHPQRRA | 0.47 ± 0.25
10 | QYGSLGSTYTSAYLWRLYVL | inactive
11 | IASAYLSVLRYPFRIAKGLI | inactive
12 | VKFSTRNFNKVQLHVFTTCM | inactive
13 | TILGDFVFVFILKVCFTYHR | -0.806 ± 1.3
14 | QVLRSYHYGCYSGCGALHMR | inactive
15 | LSYYVFRYTNTHWSPCFYIE | inactive
16 | TVRFLVHYITAKGKSVGITK | inactive
17 | ELGFFCSL | inactive
18 | PLRSTKSIIVLMDEMRLIAN | inactive
19 | QCLIYLYVFVLPVLEFGMDR | inactive
20 | CFRCFGKGCHILAYGVYC | inactive
21 | PHFQTFRDYVLCGISFSYCE | 1.46 ± 0.1
22 | AKATMPIT | inactive
23 | YDGLSSAMGEHIRNNNCLLV | inactive

Row | Substance | amyloid nucleation score
24 | LCCSCWLLIDCQWKDGYLEG | 1.91 ± 0.079
25 | VSRRFVIM | 0.45 ± 0.17
26 | IKRCK | 1.39 ± 0.076
27 | SCIRVRRNATVAVVLDDMLK | inactive
28 | GALMCPPRLVS | inactive
29 | SVTLRLVFRCP | 1.05 ± 0.15
30 | LFTDPCCTIGMSFRV | 1.08 ± 0.075
31 | GQYPEYYWYLGTEFFTVVLF | inactive
32 | QSPRDTSPDLRTYCLVA | inactive
33 | VIKDYSQCMSWHGVESSWRL | -0.31 ± 0.68
34 | LFDALYLEVTLGSSMVYVKN | inactive
35 | FSFRTMYVFDPLYNKYRIFM | 0.125 ± 0.6
36 | NFFVTFICAFEEAYMTKQLR | 2 ± 0.082
37 | YTKATHSVMFGFTVIVVF | inactive
38 | VWVVV | inactive
39 | GDNSLTYMSAM | inactive
40 | PEMFGRSWARDTRKVTVLAS | inactive
41 | LAFADRITGYGWSGTVRMMW | inactive
42 | WINGTISDC | inactive
43 | NIGWV | -0.568 ± 1.3
44 | YINLFGKWA | 1.53 ± 0.1
45 | RLHVRCNCDLSDGVPRAVCE | 0.599 ± 0.23
46 | PVTDLWLTFS | inactive

Row | Substance | amyloid nucleation score
47 | TPGSYLGYCIPRFIGLQYDP | inactive
48 | MMTCF | inactive
49 | RQIRPMRTLSGTLGAGDRCH | inactive
50 | RVKQQLNLP | inactive
51 | KMTGLWLNVAVSDAFLEYDE | 1.46 ± 0.13
52 | LRSDMLVVPRIFFACFWSIK | inactive
53 | ECELPNAPTCEICKIDSRLG | inactive
54 | FRTTLKTR | inactive
55 | SMLAPCHELEHMGRCGECSN | inactive
56 | SQNAQESIPMRKFITPSRVF | inactive
57 | YAFKVCS | inactive
58 | VLKARMY | inactive
59 | WVTYWASRVFE | inactive
60 | VLIITLMYMYATFLSFYKPQ | 2.59 ± 0.085
61 | LGPMAGRVSRYCNAARLTRC | -0.999 ± 2.4
62 | IFCMFYGSMQAQTIKCNVTH | 1.19 ± 0.093
63 | HDCSYLGILKDMDS | inactive
64 | PKMSPSAMRSCDDLASPFIS | inactive
65 | QGSYTAESTVHHWGFKMNNY | 0.754 ± 0.22
66 | STSSLASNYRDFSIR | inactive
67 | SNVPYKDLQTLWCSHPVSVV | inactive
68 | RTHGCCSVCNTEFADGVVLS | inactive
69 | NSKSVSWMFMPLQAFLCLIG | inactive

Row | Substance | amyloid nucleation score
70 | PYAGCIH | inactive
71 | FYPRMYTISQMLDAGQDDAA | inactive
72 | FFGPLPRTAIYQHILCTRNG | 0.665 ± 0.14
73 | LIPQRDNMGGGFRTFSLCYV | inactive
74 | MTRKYQNR | inactive
75 | VGSRAGYMRQLSVSACTRVL | inactive
76 | RLVSLSPNLLMYSNVLDYLK | inactive
77 | FEEYAIYPVAKGSVKMDAAL | inactive
78 | SIRDYSFIASSC | inactive
79 | IIIVILLQNWTSVRAVKPIV | inactive
80 | HSVLGMCFSPKGVDVTTLVN | inactive
81 | VHCHV | -0.536 ± 0.93
82 | TRMSGRHLCVITACLLTLNC | 0.576 ± 0.15
83 | IVMIVNTGIA | inactive
84 | FGIWRLCRFFA | inactive
85 | TSWTGWVRCHIGSSNISALT | inactive
86 | VRACNRLVYRFGDTVISDKR | inactive
87 | SSPDCNYNECVPGACERRGF | inactive
88 | MMRSVHFFRCRQTHENLLMC | -0.207 ± 0.66
89 | GVTLFSVVQTFLVSTLCKIE | inactive
90 | ESLIGSQGQRSNYNIMGNGW | inactive
91 | HNLMYDRYP | inactive
92 | WVIIIYRYLFRNISAKQSRL | inactive

Row | Substance | amyloid nucleation score
93 | YSCFFIPWRVGAYRTDNFRS | inactive
94 | LGKGICKSTWLQQCRGKSDF | inactive
95 | SRTAKSFDATWMITFYGWGP | inactive
96 | YRSFSSKDVSKL | inactive
97 | IQLWRTADGVYKVSGVNK | inactive
98 | VAVVIEYMKLVVLG | inactive
99 | RRMLTRTFRG | inactive
100 | FRRFSGTGFIMSEIAYFFSI | inactive
101 | SSQVET | inactive
102 | YSQLRARMKCVYLGY | inactive
103 | YMESVARNSLRVSDCNAK | 0.7 ± 0.14
104 | SDYENTRTNDNDHICVLSVG | inactive
105 | RARLHSVAINDVHSFTVSLG | 0.004 ± 0.39
106 | HHLTFTGGWYPDWHSLFMGG | inactive
107 | SFSWLTFPRGSDNFQDWHCI | 0.56 ± 0.31
108 | FYWGACSIHLFKL | inactive
109 | AYVSHINDMPAFGPKSNKPS | -0.19 ± 0.81
110 | IMANFVRMYLEYMMRAAVSL | inactive
111 | LLCRE | inactive
112 | GSGTGNALLQLGLTSIFTFS | inactive
113 | YLLFMYFLLSSCCSLPALPM | 1.4 ± 0.12
114 | LIILWRQ | 1.27 ± 0.079
115 | VINVYTAINGSWALN | 2.17 ± 0.059

Row | Substance | amyloid nucleation score
116 | FPGSS | inactive
117 | RIPTLIFRLILIMFHDFDFQ | inactive
118 | RCHISERD | inactive
119 | RDVWDYSREHLYNDDFLIGA | -0.422 ± 0.75
120 | CLFGHGY | inactive
121 | IVSWKVRSVSLKLLLSCAPD | inactive
122 | MDGPGVTFCPEVLDKWDGSI | -0.205 ± 1.4
123 | IIWAVRKGTPSSRRVTWAGK | inactive
124 | TCFSYLIFSCGFHSY | 0.404 ± 0.64
125 | SRTGVC | -0.227 ± 1.5
126 | FYQNLFRILMHNVHAVCPCY | inactive
127 | ISQGFGCEFVFWFEEGKFFH | inactive
128 | RYWHEASVVGFIWGKWVDVS | inactive
129 | SSSKNACDPC | inactive
130 | RTIFFFLDSMLIYSRAVCRL | inactive
131 | TYMGSTYLSNSYVLVSNNIK | 1.72 ± 0.12
132 | LSSETWRRLQIVSIHYGLVV | inactive
133 | MWLVFLTKQNYNNKVQTG | inactive
134 | MIFNVDGLDLVPDKVRYYRD | inactive
135 | WNMNYVQFDGNVLVNAD | inactive
136 | RHMFVSSSKRWKFSSNTYRT | inactive
137 | LFSVMSKYSFRWLRDNFCHA | inactive
138 | NGWNVMYLFMCRVNSARSIL | 1.77 ± 0.081

Row | Substance | amyloid nucleation score
139 | MQSAAM | inactive
140 | YSGKYVCAVGF | inactive
141 | DSLYWCSPFNGHCSDNNTQN | inactive
142 | CTFDWVLITLVEGSRAIW | inactive
143 | TDVISRMMRGGQVLCMCKQC | inactive
144 | CCYLLHGGRILMIVVMSHHL | inactive
145 | YLSSIW | inactive
146 | FVNISHMY | inactive
147 | FDKGFLMTLNTLAVLSNQE | inactive
148 | AASIFGNSV | inactive
149 | WVDGYFNLTENVPAVVGK | inactive
150 | ISFRYHIYRSNCSQMNGRLT | inactive
151 | AEVPSFECFTVPVFLRSIAV | inactive
152 | SCFCQILPFRV | inactive
153 | VGNWYGKTIGMSSLEFLMSR | inactive
154 | LSNPTSRVLSYRTNM | inactive
155 | QLQSYRQGTFGDQYSPSVHS | inactive
156 | FSPMYFNWMIGVVCSGIVGN | -0.349 ± 0.8
157 | MRSLGSAMWR | inactive
158 | EVFVLNYNWNVCHWLFVADV | 1.83 ± 0.083
159 | SAGACSV | inactive
160 | YKSNLLSYGALLISDFVLVR | -0.108 ± 0.63
161 | TNCCTCVMEASGNEGIGTLN | 0.367 ± 0.23
